From patent US5998142

Key:
[1] = target: T1, neutrophil elastase (hNE) (Homo sapiens) (UniProt P08246); test: inhibition
T1 sequence: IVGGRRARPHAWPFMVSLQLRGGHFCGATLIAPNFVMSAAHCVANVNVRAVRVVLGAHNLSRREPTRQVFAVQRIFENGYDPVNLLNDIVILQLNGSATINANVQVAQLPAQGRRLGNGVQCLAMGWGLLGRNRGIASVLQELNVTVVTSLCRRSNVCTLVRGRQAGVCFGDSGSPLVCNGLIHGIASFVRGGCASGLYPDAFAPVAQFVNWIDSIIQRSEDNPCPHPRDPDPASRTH

[2] = target: bradykinin, N-bromoacetylated (BrBK) (UniProt P01042); conditions: 5'-GMPS (5' guanosine monophosphorothioate)
bradykinin, N-bromoacetylated (BrBK), sequence (P01042 whole entry, looked up): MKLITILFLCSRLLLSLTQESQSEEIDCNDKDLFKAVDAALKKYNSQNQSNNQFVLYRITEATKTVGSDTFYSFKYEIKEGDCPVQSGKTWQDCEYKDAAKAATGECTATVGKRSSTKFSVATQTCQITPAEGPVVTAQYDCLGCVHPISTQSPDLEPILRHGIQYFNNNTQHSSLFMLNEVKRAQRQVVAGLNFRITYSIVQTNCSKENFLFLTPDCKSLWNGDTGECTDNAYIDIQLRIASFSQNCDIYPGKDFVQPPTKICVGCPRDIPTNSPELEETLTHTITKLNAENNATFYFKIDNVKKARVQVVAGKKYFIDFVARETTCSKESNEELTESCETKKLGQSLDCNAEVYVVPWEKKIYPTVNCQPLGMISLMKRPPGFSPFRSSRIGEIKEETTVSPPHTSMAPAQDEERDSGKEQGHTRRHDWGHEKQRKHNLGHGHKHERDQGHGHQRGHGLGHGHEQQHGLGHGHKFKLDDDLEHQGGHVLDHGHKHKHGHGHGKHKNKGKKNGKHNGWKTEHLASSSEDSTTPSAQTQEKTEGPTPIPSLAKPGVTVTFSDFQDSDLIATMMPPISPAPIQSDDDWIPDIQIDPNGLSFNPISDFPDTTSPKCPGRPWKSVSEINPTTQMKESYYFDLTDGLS

GGGAGGACGAUGCGGNNNNNNNNNNNNNNNNNNNNNNNNNNNNNNNNNNNNNNNNCAGACGACGAGCGGGA [40N7.1 rd0 RNA:DNA:valP]
activity ([1]; 2'-NH2 U and C, kinact/[I], unit not given, pool, 37 C): 290000

GGGAGGACGATGCGGACCACAGCCACTAGNNGCATCGTCCTCTGCGTCCAGACGACGAGCGGGA [ED21]
activity ([1]; kinact/KI, room temperature): 3.2e+06 M⁻¹ min⁻¹

GGGAGCUCAGAAUAAACGCUCAANNNNNNNNNNNNNNNNNNNNNNNNNNNNNNUUCGACAUGAGGCCCGGAUCCGGC [30N1 pool]
K half [2]: 13 mM

GGGAGGACGAUGCGGNNNNNNNNNNNNNNNNNNNNNNNNNNNNNNNNNNNNNNNNCAGACGACGAGCGGGA [40N7.1 ssDNA pool]
activity ([1]; kinact/KI, pool, room temperature): 1.86e+06 M⁻¹ min⁻¹

GGGAGGACGATGCGGCAGNNGGNNCAGGTAATGTGAGTAACCTCTACTACTCTGCAGACGACGAGCGGGA [ED15]
activity ([1]; kinact/KI, room temperature): 4.8e+08 M⁻¹ min⁻¹
